Measured values taken from article PMC11417369, “DNA sequence and chromatin differentiate sequence-specific transcription factor binding in the human malaria parasite Plasmodium falciparum”.

T1: HDP1 homeodomain-like (Plasmodium falciparum, UniProt Q8IKH4 2990-3078)
T1 sequence: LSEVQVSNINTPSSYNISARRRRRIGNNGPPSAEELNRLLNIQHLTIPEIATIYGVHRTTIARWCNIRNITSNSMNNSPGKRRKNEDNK

T2: SIP2 D1 (Plasmodium falciparum, UniProt C6KSN9 177-235)
T2 sequence: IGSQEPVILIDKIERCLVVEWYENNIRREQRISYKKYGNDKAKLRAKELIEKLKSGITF

B1: GTGCAC_negctrl_site528 (dsDNA)
DNA 1: AAACATCTTTACAACGTCCCTCCTTTTTTATGTACC
DNA 2: GGTACATAAAAAAGGAGGGACGTTGTAAAGATGTTT
B2: GTGCAC_negctrl_site245 (dsDNA)
DNA 1: TTTTATATCTAGTTTATATTTCTTAAATAAATAAAT
DNA 2: ATTTATTTATTTAAGAAATATAAACTAGATATAAAA
B3: GTGCAC_negctrl_site227 (dsDNA)
DNA 1: ATAGAATAAATTTTGTCATTTATTCCTTATATATAA
DNA 2: TTATATATAAGGAATAAATGACAAAATTTATTCTAT
B4: GTGCAC_negctrl_site715 (dsDNA)
DNA 1: TTTTTTCTTTTATGTGAAATGTAATATTGTTATATA
DNA 2: TATATAACAATATTACATTTCACATAAAAGAAAAAA
B5: GTGCAC_negctrl_site667 (dsDNA)
DNA 1: GTAAGAATATTTATAAATGTATAATTTGTATTATTT
DNA 2: AAATAATACAAATTATACATTTATAAATATTCTTAC
B6: GTGCAC_negctrl_site13 (dsDNA)
DNA 1: AAAAAAAAAAATATATTAAAATAAAAAATATTAACA
DNA 2: TGTTAATATTTTTTATTTTAATATATTTTTTTTTTT
B7: GTGCAC_negctrl_site175 (dsDNA)
DNA 1: AAAATGTATGGAATGCTCTTTTTTAAGTATTATATA
DNA 2: TATATAATACTTAAAAAAGAGCATTCCATACATTTT
B8: GTGCAC_site10459 (dsDNA)
DNA 1: TTATAAATGTGCGTAGTGCATAAACAAAAAAAAAAT
DNA 2: ATTTTTTTTTTGTTTATGCACTACGCACATTTATAA
B9: GTGCAC_negctrl_site298 (dsDNA)
DNA 1: TTTTAACAAAACTAAATAATCATATATATAAGATAT
DNA 2: ATATCTTATATATATGATTATTTAGTTTTGTTAAAA
B10: GTGCAC_negctrl_site519 (dsDNA)
DNA 1: AAAATACATATATATATATATAATATTGTTGTTAAA
DNA 2: TTTAACAACAATATTATATATATATATATGTATTTT
B11: GTGCAC_negctrl_site122 (dsDNA)
DNA 1: ATCTTAGTTGAAATATAGAATTTATAATAAAAGTTA
DNA 2: TAACTTTTATTATAAATTCTATATTTCAACTAAGAT
B12: GTGCAC_negctrl_site614 (dsDNA)
DNA 1: TATTTAGACATAACAAATAGACTAACAAAAGATTTA
DNA 2: TAAATCTTTTGTTAGTCTATTTGTTATGTCTAAATA
B13: GTGCAC_negctrl_site285 (dsDNA)
DNA 1: AAAATATTATTACAGAAACAAAAAGAAAAATATATA
DNA 2: TATATATTTTTCTTTTTGTTTCTGTAATAATATTTT
B14: GTGCAC_negctrl_site342 (dsDNA)
DNA 1: TATTTATATAATCCTATAATATTACTACTATCTTTA
DNA 2: TAAAGATAGTAGTAATATTATAGGATTATATAAATA
B15: GTGCAC_negctrl_site39 (dsDNA)
DNA 1: AAACAGCATGGTATACCTATAAAATATATATACTAA
DNA 2: TTAGTATATATATTTTATAGGTATACCATGCTGTTT
B16: GTGCAC_negctrl_site475 (dsDNA)
DNA 1: AGAAATAATATTATTCAAGTATTTATTTAATTTTCA
DNA 2: TGAAAATTAAATAAATACTTGAATAATATTATTTCT
B17: GTGCAC_negctrl_site321 (dsDNA)
DNA 1: ACAAAAAATTAATGAGAAATGGAATAATAAGTTATA
DNA 2: TATAACTTATTATTCCATTTCTCATTAATTTTTTGT
B18: GTGCAC_negctrl_site155 (dsDNA)
DNA 1: AAATTTTTTAATTTTTCTCATTTAATTTAAAAATTA
DNA 2: TAATTTTTAAATTAAATGAGAAAAATTAAAAAATTT
B19: GTGCAC_negctrl_site301 (dsDNA)
DNA 1: TTTATTTATTTATATTTTTTTATATAATTTATATAT
DNA 2: ATATATAAATTATATAAAAAAATATAAATAAATAAA
B20: GTGCAC_negctrl_site189 (dsDNA)
DNA 1: AACAAATATGATTTTTTATATATTTTTAAATTTGGT
DNA 2: ACCAAATTTAAAAATATATAAAAAATCATATTTGTT
B21: GTGCAC_negctrl_site367 (dsDNA)
DNA 1: TTTTAAAAAAAAAAAAAATAAGATAAAATTAAATAA
DNA 2: TTATTTAATTTTATCTTATTTTTTTTTTTTTTAAAA
B22: GTGCAC_negctrl_site633 (dsDNA)
DNA 1: AAAAAAATAAAAAATATATAAATAATTAATACATGT
DNA 2: ACATGTATTAATTATTTATATATTTTTTATTTTTTT
B23: GTGCAC_negctrl_site305 (dsDNA)
DNA 1: ATTTATATAAAATTAAAATAATACAAATTTATTCAT
DNA 2: ATGAATAAATTTGTATTATTTTAATTTTATATAAAT
B24: GTGCAC_negctrl_site641 (dsDNA)
DNA 1: TTTTCTTGACCTATTATTCTTCTCATAGTATAATAT
DNA 2: ATATTATACTATGAGAAGAATAATAGGTCAAGAAAA
B25: GTGCAC_negctrl_site553 (dsDNA)
DNA 1: GGAAAATCTAATCATTTAATATTTATTTATCTAATT
DNA 2: AATTAGATAAATAAATATTAAATGATTAGATTTTCC
B26: GTGCAC_negctrl_site257 (dsDNA)
DNA 1: TGCAAAAAAAAAAAAAAAAAATATATGGAAATATAT
DNA 2: ATATATTTCCATATATTTTTTTTTTTTTTTTTTGCA
B27: GTGCAC_negctrl_site472 (dsDNA)
DNA 1: TATTTAAAATAATAACAAAATTAACATAAATATATA
DNA 2: TATATATTTATGTTAATTTTGTTATTATTTTAAATA
B28: GTGCAC_negctrl_site154 (dsDNA)
DNA 1: AATAGTATTCACAAAGTTTTATATAATAAATATAAA
DNA 2: TTTATATTTATTATATAAAACTTTGTGAATACTATT
B29: GTGCAC_negctrl_site177 (dsDNA)
DNA 1: TCACAAAAAGAACATTGATATTATTATAAAATCGTC
DNA 2: GACGATTTTATAATAATATCAATGTTCTTTTTGTGA
B30: GTGCAC_negctrl_site723 (dsDNA)
DNA 1: AGCATTTTAAAAGAAAAAAAAAAAAAAAAAAAAATA
DNA 2: TATTTTTTTTTTTTTTTTTTTTTCTTTTAAAATGCT
B31: GTGCAC_negctrl_site27 (dsDNA)
DNA 1: ACATATGTATGAATATCAAAAAATCCCTATTTAATG
DNA 2: CATTAAATAGGGATTTTTTGATATTCATACATATGT
B32: GTGCAC_negctrl_site601 (dsDNA)
DNA 1: TAAGCCAAGGGATAAATAAAATAACAAAATGAAATC
DNA 2: GATTTCATTTTGTTATTTTATTTATCCCTTGGCTTA

How the values were obtained:
Assay in all cases: gcPBM; about 25 ug protein; PBS, 1% milk, 0.2 mg/ml BSA, salmon testes DNA, 0.03% Triton X-100
AP2-I D3 = AP2-I D3 (Plasmodium falciparum, UniProt Q8IJW6 910-1027); conditions: tags: N-terminal GST (pGEX-4T-1), kept; label: surface-attached array probe
HDP1 homeodomain-like = molecular target: T1, HDP1 homeodomain-like; conditions: tags: N-terminal GST (pGEX-4T-1), kept; chain copies: 2; label: surface-attached array probe
SIP2 D1 = molecular target: T2, SIP2 D1; conditions: tags: N-terminal GST (pGEX-4T-1), kept; label: surface-attached array probe

Row | Binder | binding signal (AP2-I D3) | binding signal (HDP1 homeodomain-like) | binding signal (SIP2 D1)
1 | B1 | 7.28 ln median PBM intensity, better of two orientations | 6.32 ln median PBM intensity, better of two orientations | 
2 | B2 | 7.05 ln median PBM intensity, better of two orientations | 6.07 ln median PBM intensity, better of two orientations | 
3 | B3 | 7.14 ln median PBM intensity, better of two orientations | 6.37 ln median PBM intensity, better of two orientations | 6.84 ln median PBM intensity, better of two orientations
4 | B4 | 7.2 ln median PBM intensity, better of two orientations | 6.24 ln median PBM intensity, better of two orientations | 
5 | B5 | 7.22 ln median PBM intensity, better of two orientations | 6.29 ln median PBM intensity, better of two orientations | 6.8 ln median PBM intensity, better of two orientations
6 | B6 | 6.95 ln median PBM intensity, better of two orientations | 6.05 ln median PBM intensity, better of two orientations | 
7 | B7 | 6.96 ln median PBM intensity, better of two orientations | 6.2 ln median PBM intensity, better of two orientations | 
8 | B8 | 11.5 ln median PBM intensity, better of two orientations | 10.2 ln median PBM intensity, better of two orientations | 8.72 ln median PBM intensity, better of two orientations
9 | B9 | 6.97 ln median PBM intensity, better of two orientations | 6.21 ln median PBM intensity, better of two orientations | 
10 | B10 | 7.2 ln median PBM intensity, better of two orientations | 6.31 ln median PBM intensity, better of two orientations | 
11 | B11 | 7.07 ln median PBM intensity, better of two orientations | 6.01 ln median PBM intensity, better of two orientations | 
12 | B12 | 6.94 ln median PBM intensity, better of two orientations | 6.13 ln median PBM intensity, better of two orientations | 
13 | B13 | 7.1 ln median PBM intensity, better of two orientations | 6.37 ln median PBM intensity, better of two orientations | 6.76 ln median PBM intensity, better of two orientations
14 | B14 | 6.86 ln median PBM intensity, better of two orientations | 6.28 ln median PBM intensity, better of two orientations | 
15 | B15 | 7.07 ln median PBM intensity, better of two orientations | 6.18 ln median PBM intensity, better of two orientations | 
16 | B16 | 6.75 ln median PBM intensity, better of two orientations | 5.92 ln median PBM intensity, better of two orientations | 6.53 ln median PBM intensity, better of two orientations

Row | Binder | binding signal (AP2-I D3) | binding signal (HDP1 homeodomain-like) | binding signal (SIP2 D1)
17 | B17 | 7.2 ln median PBM intensity, better of two orientations | 6.32 ln median PBM intensity, better of two orientations | 6.83 ln median PBM intensity, better of two orientations
18 | B18 | 7.03 ln median PBM intensity, better of two orientations | 5.71 ln median PBM intensity, better of two orientations | 
19 | B19 | 7.13 ln median PBM intensity, better of two orientations | 6.28 ln median PBM intensity, better of two orientations | 
20 | B20 | 7.09 ln median PBM intensity, better of two orientations | 5.9 ln median PBM intensity, better of two orientations | 6.75 ln median PBM intensity, better of two orientations
21 | B21 | 6.89 ln median PBM intensity, better of two orientations | 6.01 ln median PBM intensity, better of two orientations | 6.6 ln median PBM intensity, better of two orientations
22 | B22 | 7.14 ln median PBM intensity, better of two orientations | 6.32 ln median PBM intensity, better of two orientations | 
23 | B23 | 7 ln median PBM intensity, better of two orientations | 6.1 ln median PBM intensity, better of two orientations | 
24 | B24 | 7.08 ln median PBM intensity, better of two orientations | 6.18 ln median PBM intensity, better of two orientations | 
25 | B25 | 6.76 ln median PBM intensity, better of two orientations | 5.78 ln median PBM intensity, better of two orientations | 6.68 ln median PBM intensity, better of two orientations
26 | B26 | 6.92 ln median PBM intensity, better of two orientations | 6.13 ln median PBM intensity, better of two orientations | 
27 | B27 | 7.1 ln median PBM intensity, better of two orientations | 6.24 ln median PBM intensity, better of two orientations | 
28 | B28 | 6.96 ln median PBM intensity, better of two orientations | 5.94 ln median PBM intensity, better of two orientations | 
29 | B29 | 7 ln median PBM intensity, better of two orientations | 6.14 ln median PBM intensity, better of two orientations | 
30 | B30 | 7.05 ln median PBM intensity, better of two orientations | 5.84 ln median PBM intensity, better of two orientations | 6.8 ln median PBM intensity, better of two orientations
31 | B31 | 6.97 ln median PBM intensity, better of two orientations | 6.3 ln median PBM intensity, better of two orientations | 
32 | B32 | 7.02 ln median PBM intensity, better of two orientations | 6.27 ln median PBM intensity, better of two orientations | 
